System: H460 cells
Assay: H460 non-small cell lung carcinoma xenograft model
Format: in vivo, athymic nude mice
Conditions: combination partner Paclitaxel, Day 21
Protocol: Animals were monitored for regression responses.
The statistical tests were not adjusted for multiple comparisons.
Cultured H460 cells were harvested during exponential growth and resuspended in phosphate buffered saline at a concentration of 1×10^8 cells/mL. 1.0×10^7 tumor cells were injected subcutaneously into the flank of athymic nude mice. Animals were euthanized when tumors reached the pre-determined volume endpoint of 2000 mm^3 or on the final day (Day 88), whichever came first.

B1: M830: TEM8 monoclonal antibody (hIgG1), VH SEQ ID NO:5, VL SEQ ID NO:6; Fab in Table 6 (antibody, V domains shown)
VH: EVQLVESGGGVVQPGRSVRLSCAASGFTFSTYTMHWVRQAPGKGLEWVAIISNDGSNKYYADPVRGRFTISRDNSKNTLYLQMNSLRAEDTAVYYCVRGSSWYRGNWFDPWGQGTLVTVSS
VL: DIQMTQSPSSLSASVGDRVTIACRASQTISRYLNWYQQKPGKAPKLLIYAASSLQSGVSSRFSGSGSGTEFTLTISSLQPEDFATYFCQQTYSPPITFGQGTRLEIKR
modifications: TEM830 mAb VH; TEM830 mAb VL
With B1 the regression was “(−61%”.
